Results: PMC8304084, “A Concerted Action of UBA5 C-Terminal Unstructured Regions Is Important for Transfer of Activated UFM1 to UFC1” (International Journal of Molecular Sciences, 2021)

Legend:
Type in all cases: binding
UFC1 = biological target: T1, UFC1 (Homo sapiens, UniProt Q9Y3C8); experiment: ITC, UBA5 constructs vs UFC1
T1 construct: Full length UFC1, residues 1–167; modified ubiquitin tag (Ub19) with TEV site (N, cleaved yes); made in house; host or cells: E. coli T7 Express
T1 sequence (Q9Y3C8 1-167): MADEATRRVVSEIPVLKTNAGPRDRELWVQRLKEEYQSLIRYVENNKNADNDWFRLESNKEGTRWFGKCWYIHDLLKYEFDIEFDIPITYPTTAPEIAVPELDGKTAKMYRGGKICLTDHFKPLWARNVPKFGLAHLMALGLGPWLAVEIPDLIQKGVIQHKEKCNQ
Description: (§1) To understand how the UBA5 C-terminus participates in the ufmylation cascade, we performed isothermal titration calorimetry (ITC) experiments, in which we titrated UBA5 C-terminal peptides (see Table 1) to the UBA5 AD, UFC1, UFM1 and representative LC3/GABARAP proteins (Figure 2A, Supplementary Figure S2A–D and Table 2).
To investigate if conjugation of UFM1 to the UBA5 catalytic cysteine (C250) affects the UFC1:UBA5 interactions, we prepared full length UBA5 C250K mutant and stably conjugated UFM1 to it as reported before for a number of ubiquitin-specific E2 enzymes. We compared the UFC1 spectra after addition of a twofold molar excess of FL^1–404 and FL^1–404 C250K~UFM1 constructs (Supplementary Figure S5C).
(§2) All proteins and peptides were expressed in E.Coli T7 Express (New England Biolabs GmbH, Frankfurt, Germany) cells in LB or M9 (to obtain ^15N- and ^13C,^15N-labeled polypeptides) media according to the protocol described in [33, 36]. For protein purification, bacterial cell pellets were resuspended in lysis buffer (50 mM Tris-HCl pH = 7.5, 100 mM NaCl, 5% glycerol, 5 mM PIC (protease inhibitor cocktail)) and lysed via sonication (TT13 Sonotrode, 40% amplitude, for 6 × 1 min with a 0.5/0.5-s pulse). Lysates were centrifuged for 45 min at 17,000× g at 4 °C. Supernatants were loaded onto a His Trap Fast Flow 5 mL column (GE Healthcare, München, Germany) equilibrated in loading buffer (50 mM Tris-HCl pH = 8.0, 250 mM NaCl, 1% glycerol, 20 mM imidazole). The column was washed with loading buffer for 5–10 CV and protein was eluted with elution buffer (50 mM Tris-HCl pH = 8, 250 mM NaCl, 1% glycerol, 400 mM imidazole). Simultaneous TEV cleavage (1 mg TEV protease was added to 100 mg peptides/proteins) and buffer exchange to loading buffer via dialysis was performed over night at 4 °C. After reverse IMAC, proteins were concentrated with conical concentrators (Millipore Merck, Darmstadt, Germany) and loaded on a Superdex 10/60 75 or 200 column (GE Healthcare, München, Germany) for further purification and equilibration with ITC/NMR buffer (25 mM HEPES pH = 7.5, 100 mM NaCl). For structural NMR spectroscopy, buffer containing 50 mM Tris-HCl pH = 7.5, 100 mM NaCl was used. Prior to NMR experiments, TCEP and protease inhibitors cocktail were added to the samples to final concentrations 1 and 5 mM, respectively. Purified peptides and protein were concentrated and stored at −80 °C. The protein and peptide concentrations were calculated from the UV absorption at 280 nm by Nanodrop spectrophotometer (Thermo Scientific, Langenselbold, Germany).
(§3) All ITC experiments were performed at 25 °C using a VP-ITC microcalorimeter (Malvern Panalytical Ltd., Malvern, UK). Peptides in concentration of ~400 µM were titrated into 20–25 µM solutions of corresponding binding partner at a stirring speed of 307 rpm. The raw data were corrected on the dilution heat of peptides obtained in independent experiment (titration of the peptide in syringe into the ITC/NMR buffer in the measuring cell). Pre-titration delay was set to 180 s, interval between titration steps was experimentally adjusted to avoid kinetic contribution to the observed heat effects and set to 200 s. A single ITC profile was collected for each type of interaction. The ITC data were analyzed based on a “one-site” binding model with MicroCal ITC software implemented in Origin 7.0.

Ub = experiment: Interaction of ubiquitin with UBA5 C-terminal region
Procedure: as §3

UFM1 = biological target: T2, UFM1 (Homo sapiens, UniProt P61960); experiment: ITC, UBA5 peptides vs UFM1; conditions: 25 °C
T2 construct: Full length UFM1, residues 2–83; modified ubiquitin tag (Ub19) with TEV site (N, cleaved yes); made in house; host or cells: E. coli T7 Express
T2 sequence (P61960 2-83): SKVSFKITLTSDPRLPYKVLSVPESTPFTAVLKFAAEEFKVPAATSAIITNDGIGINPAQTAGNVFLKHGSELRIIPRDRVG
Description: as §1, §2, §3

LC3A = biological target: T3, LC3A (Homo sapiens, UniProt Q9H492); experiment: ITC, UBA5 peptides vs LC3A; conditions: 25 °C
T3 construct: LC3A, residues 4–120; ubiquitin tag Ub3 (vector pETm60_Ub3) (cleaved yes); made in house; host or cells: E. coli T7 Express
T3 sequence (Q9H492 4-120): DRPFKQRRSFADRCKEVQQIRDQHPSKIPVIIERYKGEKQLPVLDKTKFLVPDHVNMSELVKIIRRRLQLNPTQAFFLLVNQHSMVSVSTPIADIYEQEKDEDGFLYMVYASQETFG
Description: as §1
as §2, with “For structural NMR spectroscopy, buffer containing 50 mM Tris-HCl pH = 7.5, 100 mM NaCl was used. Prior to NMR experiments, TCEP and protease inhibitors cocktail were added to the samples to final concentrations 1 and 5 mM, respectively. Purified peptides and protein were concentrated and stored at −80 °C.” left out
All ITC experiments were performed at 25 °C using a VP-ITC microcalorimeter (Malvern Panalytical Ltd., Malvern, UK). […] The ITC data were analyzed based on a “one-site” binding model with MicroCal ITC software implemented in Origin 7.0.

GABARAPL2 = biological target: T4, GABARAPL2 (Homo sapiens, UniProt P60520); experiment: NMR titration with GABARAPL2; conditions: NMR titration of 15N-labeled R1-R2-R3^325–404 with GABARAPL2, 25 °C
T4 construct: modified ubiquitin tag (Ub19) with TEV site (N, cleaved yes); made in house; host or cells: E. coli T7 Express
T4 sequence (P60520 3-116): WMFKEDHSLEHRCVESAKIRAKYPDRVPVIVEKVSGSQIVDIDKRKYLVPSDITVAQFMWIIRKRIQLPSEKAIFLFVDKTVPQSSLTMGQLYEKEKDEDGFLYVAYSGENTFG

Substance: R1-R2-R3^325–404: UBA5 C-terminal part, residues 325–404 (recombinant, E. coli)
- N (UFC1; ITC stoichiometry, peptide vs UFC1, ± = fitting error): 1.03 ± 0.01
- affinity increase to UFC1 vs R3^388–404 (UFC1; ITC, 25 °C): 3 fold
- ΔG (UFC1; ITC, 25 °C, peptide vs UFC1): -7.66 kcal/mol
- −T*ΔS (UFC1; ITC, 25 °C, peptide vs UFC1): -0.62 kcal/mol
- ΔS (UFC1; ITC, 25 °C, peptide vs UFC1, one-site model, single profile): 2.09 cal mol^−1 K^−1
- KA*10^−6 (UFC1; ITC, 25 °C, peptide vs UFC1, value is KA × 10^−6, ± = fitting error): 0.41 ± 0.02 M^−1
- Kd (UFC1; ITC, VP-ITC, 25 °C, peptide ~400 µM titrated into 20–25 µM UFC1, 25 mM HEPES pH 7.5, 100 mM NaCl, one-site model, single ITC profile): 2400 nM
- ΔH (UFC1; ITC, VP-ITC, 25 °C, peptide ~400 µM titrated into 20–25 µM UFC1, 25 mM HEPES pH 7.5, 100 mM NaCl, one-site model, single ITC profile, ± = fitting error): -7.04 ± 0.07 kcal/mol
- interaction with ubiquitin (Ub): no interaction
- affinity change, UFM1 (UFM1; compared with isolated R1^325−357 peptide (ref 31)): does not change significantly
- ΔG (UFM1; vs UFM1): -7.15 kcal/mol
- −T*ΔS (UFM1; vs UFM1): -1.31 kcal/mol
- ΔS (UFM1; vs UFM1, one-site model, single profile): 4.41 cal mol^−1 K^−1
- KA*10^−6 (UFM1; vs UFM1, value is KA × 10^−6, ± = fitting error): 0.17 ± 0.02 M^−1
- ΔG (LC3A): -7.38 kcal/mol
- −T*ΔS (LC3A): -3.13 kcal/mol
- KA*10^−6 (LC3A; value is KA × 10^−6, ± = fitting error): 0.26 ± 0.03 M^−1
- interaction with GABARAPL2 (in words) (GABARAPL2): GABARAPL2 binds first to the LIR/UFIM region, and after saturation of this binding site, GABARAPL2 interacts with additional sites within the UBA5 C-terminus
